Reference: patent US20240247250
Read-outs that look alike come from different tables or passages of the source.

Tests used:
[1] = target: tRNA-guanine transglycosylase (TGT) (Escherichia coli) (UniProt P0A847); conditions: urea PAGE shift
[2] = target: tRNA-guanine transglycosylase (TGT) (Escherichia coli) (UniProt P0A847); conditions: urea PAGE shift; best of composite hairpins

Sequence of tRNA-guanine transglycosylase (TGT) (Escherichia coli) (P0A847 whole entry): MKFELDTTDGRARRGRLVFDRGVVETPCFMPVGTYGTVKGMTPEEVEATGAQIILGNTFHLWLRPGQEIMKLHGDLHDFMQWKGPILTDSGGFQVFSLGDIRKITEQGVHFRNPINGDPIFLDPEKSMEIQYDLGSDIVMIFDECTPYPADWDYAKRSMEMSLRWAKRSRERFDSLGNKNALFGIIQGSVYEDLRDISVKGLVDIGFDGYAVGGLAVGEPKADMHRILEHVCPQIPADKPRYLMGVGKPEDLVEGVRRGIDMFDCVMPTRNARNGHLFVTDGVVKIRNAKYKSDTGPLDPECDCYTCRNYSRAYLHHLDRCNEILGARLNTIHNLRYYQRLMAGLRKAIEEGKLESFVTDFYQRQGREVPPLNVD

| Substance | activity [1] | further results |
| --- | --- | --- |
| His 17 nt DNA hairpin | 40 % labeled | – |
| Tyr 17 nt DNA hairpin | – | activity ([1]; printed as ~-5%): 5 % labeled |
| Asp 17 nt DNA hairpin | 40 % labeled | – |
| His stem-Asp loop hairpin | – | activity [2]: > 50 % labeled |
